Measured values: PMC12828031

Assays:
[1] = target: EGFP-vinculin (UniProt P18206); assay: FRET or BRET; multiphoton TCSPC-FLIM of the donor on vinculin (EGFP or mTFP1) with mScarlet-I on RIAM as acceptor; transiently transfected MEF Vinc-/- fixed in 4% PFA; also with the ROCK inhibitor H1152 (no change)
[2] = target: mTFP1-vinculin (UniProt P18206); assay: as above

FRET efficiency [1] | FRET efficiency [2] | Substance
13.5% | – | RIAM-mScarlet (RIAM C-terminally tagged with mScarlet-I) (from UniProt Q7Z5R6 1-666) (natural protein)
16.4% | 20% | mScarlet-RIAM (RIAM N-terminally tagged with mScarlet-I) (from UniProt Q7Z5R6 1-666) (natural protein)
